Assay results as given in US20040019918.

Target: GST-MKK4 fusion protein (available from Upstate Biotechnologies, Inc)

B1: His-tagged hMEKK2 (polyhistidine-hMEKK2 fusion) (protein)
chain: HHHHHHMDDQQALNSIMQDLAVLHKASRPALSLQETRKAKSSSPKKQNDVRVKFEHRGEKRILQFPRPVKLEDLRSKAKIAFGQSMDLHYTNNELVIPLTTQDDLDKAVELLDRSIHMKSLKILLVINGSTQATNLEPLPSLEDLDNTVFGAERKKRLSIIGPTSRDRSSPPPGYIPDELHQVARNGSFTSINSEGEFIPESMDQMLDPLSLSSPENSGSGSCPSLDSPLDGESYPKSRMPRAQSYPDNHQEFSDYDNPIFEKFGKGGTYPRRYHVSYHHQEYNDGRKTFPRARRTQGTSLRSPVSFSPTDHSLSTSSGSSIFTPEYDDSRIRRRGSDIDNPTLTVMDISPPSRSPRAPTNWRLGKLLGQGAFGRVYLCYDVDTGRELAVKQVQFDPDSPETSKEVNALECEIQLLKNLLHERIVQYYGCLRDPQEKTLSIFMEYMPGGSIKDQLKAYGALTENVTRKYTRQILEGVHYLHSNMIVHRDIKGANILRDSTGNVKLGDFGASKRLQTICLSGTGMKSVTGTPYWMSPEVISGEGYGRKADIWSVACTVVEMLTEKPPWAEFEAMAAIFKIATQPTNPKLPPHVSDYTRDFLKRIFVEAKLRPSADELLRHMFVHYH
phosphorylation of GST-MKK4 (32P incorporation from [gamma-32P]-ATP, SDS-PAGE, imaging): comparable to the activity of purified mouse MEKK2, and significantly above the background levels seen with control extracts

B2: purified mouse MEKK2 (protein)
chain: MDDQQALNSIMQDLAVLHKASRPALSLQETRKAKPSSPKKQNDVRVKFEHRGEKRILQVTRPVKLEDLRSKSKIAFGQSMDLHYTNNELVIPLTTQDDLDKAVELLDRSIHMKSLKILLVVNGSTQATNLEPSPSPEDLNNTPLGAERKKRLSVVGPPNRDRSSPPPGYIPDILHQIARNGSFTSINSEGEFIPESMDQMLDPLSLSSPENSGSGSCPSLDSPLDGESYPKSRMPRAQSYPDNHQEFTDYDNPIFEKFGKGGTYPRRYHVSYHHQEYNDGRKTFPRARRTQGTSFRSPVSFSPTDHSLSTSSGSSVFTPEYDDSRIRRRGSDIDNPTLTVTDISPPSRSPRAPTNWRLGKLLGQGAFGRVYLCYDVDTGRELAVKQVQFNPESPETSKEVNALECEIQLLKNLLHERIVQYYGCLRDPQEKTLSIFMELSPGGSIKDQLKAYGALTENVTRKYTRQILEGVHYLHSNMIVHRDIKGANILRDSTGNIKLGDFGASKRLQTICLSGTGMKSVTGTPYWMSPEVISGEGYGRKADIWSVACTVVEMLTEKPPWAEFEAMAAIFKIATQPTNPKLPPHVSDYTRDFLKRIFVEAKLRPSAEELLRHMFVHYH
phosphorylation of GST-MKK4 (32P incorporation from [gamma-32P]-ATP, SDS-PAGE, imaging): comparable to the activity of purified mouse MEKK2
